The source of these data is CN113583127A (MABWELL SHANGHAI BIOTECHNOLOGY CO LTD, dated 2021).

Assay [1] concerns the target mFc-NKG2A-CD94重组蛋白 (human) (UniProt P26715). The assay is described as follows: BLI (Octet QKe), antibody captured on AHC probe, mFc-NKG2A-CD94 as analyte, 1:1 fit. (In general: Biolayer interferometry detects binding as a change in optical thickness at a sensor tip.)
Assay [2] addresses PD-L1-ECD-mFc (UniProt Q9NZQ7). The assay is described as follows: competition ELISA: PD-1-hFc coated, 3 nM PD-L1-ECD-mFc with titrated antibody, detection with HRP anti-mouse Fc. (In general: ELISA stands for enzyme-linked immunosorbent assay.)
Assay [3] addresses T1, 人NKG2A/CD94 (Flp-in CHO稳定表达细胞株表面) (human, UniProt P26715 1-233; Q13241 1-179).
T1 construct: whole, on cells; also called 细胞表面人NKG2A/CD94; huNKGA/huCD94
The assay is described as follows: flow cytometry, Fab titrated on CHO cells expressing human NKG2A/CD94; column head KD[nM], title and text call it EC50. Background: In flow cytometry, cells or beads pass a laser one at a time.

T1 sequence (P26715 whole entry, chain 1 of 2): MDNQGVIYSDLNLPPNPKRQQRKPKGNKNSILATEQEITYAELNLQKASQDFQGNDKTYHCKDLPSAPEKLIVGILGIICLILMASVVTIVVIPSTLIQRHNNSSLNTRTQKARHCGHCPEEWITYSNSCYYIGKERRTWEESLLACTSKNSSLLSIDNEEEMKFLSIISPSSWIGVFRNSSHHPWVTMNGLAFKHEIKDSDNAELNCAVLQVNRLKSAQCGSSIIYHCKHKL
T1 sequence (Q13241 whole entry, chain 2 of 2): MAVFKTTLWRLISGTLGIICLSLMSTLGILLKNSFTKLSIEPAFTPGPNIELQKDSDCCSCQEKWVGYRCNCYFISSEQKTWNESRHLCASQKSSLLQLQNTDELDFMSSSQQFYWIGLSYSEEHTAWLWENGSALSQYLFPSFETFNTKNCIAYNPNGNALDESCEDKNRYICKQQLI
Chain of UniProt Q9NZQ7 (Q9NZQ7 19-239): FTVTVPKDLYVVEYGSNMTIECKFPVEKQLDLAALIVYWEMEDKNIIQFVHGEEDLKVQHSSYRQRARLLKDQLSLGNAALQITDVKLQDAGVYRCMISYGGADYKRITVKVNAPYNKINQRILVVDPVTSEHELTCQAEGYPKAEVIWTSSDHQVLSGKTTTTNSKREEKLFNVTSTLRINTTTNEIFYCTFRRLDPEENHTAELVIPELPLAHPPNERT

B1: hum270重组抗体 (antibody, V domains shown)
VH: EVQLVQSGAEVKKPGASVKVSCKASGYTFTSYWMNWVRQAPGQGLEWMGRIDPYDSETHYAQKLQGRVTMTTDTSTSTAYMELRSLRSDDTAVYYCARGGYDFDVGTLYWFFDVWGQGTTVTVSS
VL: DIQMTQSPSSLSASVGDRVTITCRASENIYSYLAWYQQKPGKAPKLLIYNAKTLAEGVPSRFSGSGSGTDFTLTISSLQPEDFATYYCQHHYGTPRTFGGGTKVEIK
For orientation: Kd means a measure of binding affinity in units of concentration. The low end stands for tighter binding, the high end for weaker binding. A word on the koff: it is the rate constant with which the complex falls apart. The low end stands for a long-lived complex, the high end for a short-lived complex. As usually defined, the kon is a measure of how fast the partners come together. Low values mean slow association, high ones fast association. In assay [1], B1 registered a Kd of 0.408 nM, a koff of 0.000196 s⁻¹ and a kon of 481000 M⁻¹ s⁻¹.

B2: 抗NKG2A和抗PD-L1双特异性抗体hum270-F2 (bispecific antibody, part only; not given: Anti-PD-L1 nanobody F2, linker, constant regions, IgG4, not shown: a dimerising Fc or GST)
heavy, part: EVQLVQSGAEVKKPGASVKVSCKASGYTFTSYWMNWVRQAPGQGLEWMGRIDPYDSETHYAQKLQGRVTMTTDTSTSTAYMELRSLRSDDTAVYYCARGGYDFDVGTLYWFFDVWGQGTTVTVSS
light, part: DIQMTQSPSSLSASVGDRVTITCRASENIYSYLAWYQQKPGKAPKLLIYNAKTLAEGVPSRFSGSGSGTDFTLTISSLQPEDFATYYCQHHYGTPRTFGGGTKVEIK
Broadly, the IC50 is the concentration at which inhibition is half-maximal. The molecule B2 yielded a concentration for half-maximal inhibition (IC50) in assay [2] of 2.86 nM.

B3: AM00 Fab (Fab, V domains shown)
VH: EVQLVQSGAEVKKPGASVKVSCKASGYTFTSYWMNWVRQAPGQGLEWMGRIDPYDSETHYAQKLQGRVTMTTDTSTSTAYMELRSLRSDDTAVYYCARGGYDFDVGTLYWFFDVWGQGTTVTVSS
VL: DIQMTQSPSSLSASVGDRVTITCRASENIYSYLAWYQQKPGKAPKLLIYNAKTLAEGVPSRFSGSGSGTDFTLTISSLQPEDFATYYCQHHYGTPRTFGGGTKVEIK
notes: also called 亲本抗体AM00; 模板抗体Fab
In assay [3], B3 registered an equilibrium dissociation constant (Kd) of 189 nM.

B4: AM10 Fab (Fab, V domains shown)
VH: EVQLVQSGAEVKKPGASVKVSCKASSYDFSWYWINWVRQAPGQGLEWMGRIDPYDSETHYAQKLQGRVTMTTDTSTSTAYMELRSLRSDDTAVYYCARGGYDFDVGTLYWFFDVWGQGTTVTVSS
VL: DIQMTQSPSSLSASVGDRVTITCRASENIYSYLAWYQQKPGKAPKLLIYNAKTLAEGVPSRFSGSGSGTDFTLTISSLQPEDFATYYCQHHYGTPRTFGGGTKVEIK
B4 returned a Kd in assay [3] of 1.43 nM.
